According to article doi:10.1101/2023.06.15.545061 (2023):
Values belong to the binder of their own block, whether it stands above or below them.

Tests used:
[1] = target: T1, biotinylated 10-mer C-terminal PBM peptide of DGKζ (human, UniProt Q13574, biotin attached to the N-terminus via a trioxatridecan-succinamic acid (ttds) linker); experiment: nHU-MS, printed as pKapp 5.01
[2] = target: T1, biotinylated 10-mer C-terminal PBM …; experiment: nHU-MS, printed as pKapp 4.96
[3] = target: T1, biotinylated 10-mer C-terminal PBM …; experiment: nHU-MS, printed as pKapp 4.98
[4] = target: T1, biotinylated 10-mer C-terminal PBM …; experiment: nHU-MS, printed as pKapp 5.71

T1 sequence (Q13574 whole entry, looked up, tested part not stated): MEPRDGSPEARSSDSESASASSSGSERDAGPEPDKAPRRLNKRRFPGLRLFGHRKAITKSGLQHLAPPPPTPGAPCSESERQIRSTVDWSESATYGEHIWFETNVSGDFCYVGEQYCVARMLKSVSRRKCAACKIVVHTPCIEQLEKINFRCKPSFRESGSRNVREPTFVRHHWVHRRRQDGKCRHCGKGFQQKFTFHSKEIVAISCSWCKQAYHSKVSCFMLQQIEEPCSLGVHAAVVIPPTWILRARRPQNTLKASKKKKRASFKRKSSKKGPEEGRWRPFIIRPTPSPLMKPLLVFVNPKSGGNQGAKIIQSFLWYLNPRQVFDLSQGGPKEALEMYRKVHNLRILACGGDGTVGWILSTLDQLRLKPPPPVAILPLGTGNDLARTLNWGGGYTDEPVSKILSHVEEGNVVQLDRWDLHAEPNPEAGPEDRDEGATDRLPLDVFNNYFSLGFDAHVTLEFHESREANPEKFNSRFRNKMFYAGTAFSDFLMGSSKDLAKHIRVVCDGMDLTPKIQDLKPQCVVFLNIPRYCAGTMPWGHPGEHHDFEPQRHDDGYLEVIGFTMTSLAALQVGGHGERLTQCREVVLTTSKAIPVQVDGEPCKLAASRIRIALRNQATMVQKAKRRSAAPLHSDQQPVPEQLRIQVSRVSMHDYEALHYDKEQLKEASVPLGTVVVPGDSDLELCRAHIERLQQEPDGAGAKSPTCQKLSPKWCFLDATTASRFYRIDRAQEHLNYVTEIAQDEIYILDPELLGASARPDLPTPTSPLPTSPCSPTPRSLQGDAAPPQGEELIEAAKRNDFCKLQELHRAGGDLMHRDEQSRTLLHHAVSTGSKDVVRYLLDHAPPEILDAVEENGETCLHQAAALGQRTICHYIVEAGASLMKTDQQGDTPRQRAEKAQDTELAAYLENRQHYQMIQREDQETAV

B1: LIN7C (natural protein)
chain: MAALGEPVRLERDICRAIELLEKLQRSGEVPPQKLQALQRVLQSEFCNAVREVYEHVYETVDISSSPEVRANATAKATVAAFAASEGHSHPRVVELPKTEEGLGFNIMGGKEQNSPIYISRIIPGGIADRHGGLKRGDQLLSVNGVSVEGEHHEKAVELLKAAQGKVKLVVRYTPKVLEEMESRFEKMRSAKRRQQT
Kd [1]: 9.77 µM

B3: CASK (natural protein)
chain: MADDDVLFEDVYELCEVIGKGPFSVVRRCINRETGQQFAVKIVDVAKFTSSPGLSTEDLKREASICHMLKHPHIVELLETYSSDGMLYMVFEFMDGADLCFEIVKRADAGFVYSEAVASHYMRQILEALRYCHDNNIIHRDVKPHCVLLASKENSAPVKLGGFGVAIQLGESGLVAGGRVGTPHFMAPEVVKREPYGKPVDVWGCGVILFILLSGCLPFYGTKERLFEGIIKGKYKMNPRQWSHISESAKDLVRRMLMLDPAERITVYEALNHPWLKERDRYAYKIHLPETVEQLRKFNARRKLKGAVLAAVSSHKFNSFYGDPPEELPDFSEDPTSSGLLAAERAVSQVLDSLEEIHALTDCSEKDLDFLHSVFQDQHLHTLLDLYDKINTKSSPQIRNPPSDAVQRAKEVLEEISCYPENNDAKELKRILTQPHFMALLQTHDVVAHEVYSDEALRVTPPPTSPYLNGDSPESANGDMDMENVTRVRLVQFQKNTDEPMGITLKMNELNHCIVARIMHGGMIHRQGTLHVGDEIREINGISVANQTVEQLQKMLREMRGSITFKIVPSYRTQSSSCERDSPSTSRQSPANGHSSTNNSVSDLPSTTQPKGRQIYVRAQFEYDPAKDDLIPCKEAGIRFRVGDIIQIISKDDHNWWQGKLENSKNGTAGLIPSPELQEWRVACIAMEKTKQEQQASCTWFGKKKKQYKDKYLAKHNAVFDQLDLVTYEEVVKLPAFKRKTLVLLGAHGVGRRHIKNTLITKHPDRFAYPIPHTTRPPKKDEENGKNYYFVSHDQMMQDISNNEYLEYGSHEDAMYGTKLETIRKIHEQGLIAILDVEPQALKVLRTAEFAPFVVFIAAPTITPGLNEDESLQRLQKESDILQRTYAHYFDLTIINNEIDETIRHLEEAVELVCTAPQWVPVSWVY
Kd [3]: 10.5 µM

Second part, the binder after the results:

Kd [2]: 11 µM
B2: SYNJ2BP (natural protein)
chain: MNGRVDYLVTEEEINLTRGPSGLGFNIVGGTDQQYVSNDSGIYVSRIKENGAAALDGRLQEGDKILSVNGQDLKNLLHQDAVDLFRNAGYAVSLRVQHRLQVQNGPIGHRGEGDPSGIPIFMVLVPVFALTMVAAWAFMRYRQQL

Kd [4]: 1.95 µM
B4: MAGI3 (natural protein)
chain: MSKTLKKKKHWLSKVQECAVSWAGPPGDFGAEIRGGAERGEFPYLGRLREEPGGGTCCVVSGKAPSPGDVLLEVNGTPVSGLTNRDTLAVIRHFREPIRLKTVKPGKVINKDLRHYLSLQFQKGSIDHKLQQVIRDNLYLRTIPCTTRAPRDGEVPGVDYNFISVEQFKALEESGALLESGTYDGNFYGTPKPPAEPSPFQPDPVDQVLFDNEFDAESQRKRTTSVSKMERMDSSLPEEEEDEDKEAINGSGNAENRERHSESSDWMKTVPSYNQTNSSMDFRNYMMRDETLEPLPKNWEMAYTDTGMIYFIDHNTKTTTWLDPRLCKKAKAPEDCEDGELPYGWEKIEDPQYGTYYVDHLNQKTQFENPVEEAKRKKQLGQVEIGSSKPDMEKSHFTRDPSQLKGVLVRASLKKSTMGFGFTIIGGDRPDEFLQVKNVLKDGPAAQDGKIAPGDVIVDINGNCVLGHTHADVVQMFQLVPVNQYVNLTLCRGYPLPDDSEDPVVDIVAATPVINGQSLTKGETCMNPQDFKPGAMVLEQNGKSGHTLTGDGLNGPSDASEQRVSMASSGSSQPELVTIPLIKGPKGFGFAIADSPTGQKVKMILDSQWCQGLQKGDIIKEIYHQNVQNLTHLQVVEVLKQFPVGADVPLLILRGGPPSPTKTAKMKTDKKENAGSLEAINEPIPQPMPFPPSIIRSGSPKLDPSEVYLKSKTLYEDKPPNTKDLDVFLRKQESGFGFRVLGGDGPDQSIYIGAIIPLGAAEKDGRLRAADELMCIDGIPVKGKSHKQVLDLMTTAARNGHVLLTVRRKIFYGEKQPEDDSSQAFISTQNGSPRLNRAEVPARPAPQEPYDVVLQRKENEGFGFVILTSKNKPPPGVIPHKIGRVIEGSPADRCGKLKVGDHISAVNGQSIVELSHDNIVQLIKDAGVTVTLTVIAEEEHHGPPSGTNSARQSPALQHRPMGQSQANHIPGDRSALEGEIGKDVSTSYRHSWSDHKHLAQPDTAVISVVGSRHNQNLGCYPVELERGPRGFGFSLRGGKEYNMGLFILRLAEDGPAIKDGRIHVGDQIVEINGEPTQGITHTRAIELIQAGGNKVLLLLRPGTGLIPDHGDWDINNPSSSNVIYDEQSPLPPSSHFASIFEESHVPVIEESLRVQICEKAEELKDIVPEKKSTLNENQPEIKHQSLLQKNVSKRDPPSSHGHSNKKNLLKVENGVTRRGRSVSPKKPASQHSEEHLDKIPSPLKNNPKRRPRDQSLSPSKGENKSCQVSTRAGSGQDQCRKSRGRSASPKKQQKIEGSKAPSNAEAKLLEGKSRRIAGYTGSNAEQIPDGKEKSDVIRKDAKQNQLEKSRTRSPEKKIKRMVEKSLPSKMTNKTTSKEVSENEKGKKVTTGETSSSNDKIGENVQLSEKRLKQEPEEKVVSNKTEDHKGKELEAADKNKETGRFKPESSSPVKKTLITPGPWKVPSGNKVTGTIGMAEKRQ
